According to publication PMC10864358, “Structural and mechanistic characterization of bifunctional heparan sulfate N-deacetylase-N-sulfotransferase 1” (Nature Communications, 2024):

B1: nAb6 (VHH)
VHH: QVQLVESGGDLVQPGGSLRLSCAASKTIFVISDMGWYRQAPGKQRELVAMITSGGTTNYADSVKGRFTISRDNTQNTVWLQMNSLKPEDTAVYYCYARVERWRPTDSWGQGTQVTVSS
notes: llama VHH from an NDST1-immunized library, selected by phage display; also called anti-NDST1 nanobody 6; source: E. coli WK6, periplasmic extract, purified (HisTrap, SEC)
B2: nAb7 (VHH)
VHH: QVQLVESGGGSVQAGGSLRLSCAASGFNVDDYAIGWFRQSPGKEREGVSCIGGDGTTYYENSVKGRFTVSSDKRDNTVYLQMNNLRPEDTAIYFCAADRSKYCVGKYFSTPSQYDFWGRGTHVTVSS
notes: llama VHH from an NDST1-immunized library, selected by phage display; Long CDR3 loop R98-F116; also called anti-NDST1 nanobody 7; source: E. coli WK6, periplasmic extract, purified (HisTrap, SEC)
B3: nAb5 (VHH)
VHH: QVQLVESGGGLVQAGGSLRLSCAASGRTFSSYVMGWFRQAPGKEREFVAAISWSGGTTDYAGSVKGRFTISRDNDRKTMYLEMNDLKPEDTALYYCNFKETWPRTGDYWGPGTQVTVSS
notes: llama VHH from an NDST1-immunized library, selected by phage display; also called anti-NDST1 nanobody 5; source: E. coli WK6, periplasmic extract, purified (HisTrap, SEC)
B4: nAb1 (VHH)
VHH: QVQLVESGGGLVQAGGSLRLSCAASDRTFTTYAMAWFRRAPPGKEREFVASIRWDGFGTYYTDSVKGRFTISRDSAKNEAYLQMNSLRPEDTGVYYCAAGLLFGNTKGYDHWGQGTQVTVSS
notes: llama VHH from an NDST1-immunized library, selected by phage display; also called anti-NDST1 nanobody 1; source: E. coli WK6, periplasmic extract, purified (HisTrap, SEC)
B5: nAb13 (VHH)
VHH: QVQLVESGGGLVQSGGSLRLSCTASRRASSTIGWFRQAPGKEREFVAGINWSLETATYQDSIKDRFTISRDNANNTVYLQMNSLKPEDTAVYYCAASPYRVMGDTTLYPYWGQGTQVTVSS
notes: in PDB 8CHS nAb13 is modeled only as an all-Calpha chain derived from the nAb7 structure; llama VHH from an NDST1-immunized library, selected by phage display; also called anti-NDST1 nanobody 13; source: E. coli WK6, periplasmic extract, purified (HisTrap, SEC)

Key:
[1] = target: T1, biotinylated C-terminal Avitagged NDST1 (Homo sapiens, UniProt P52848, biotin on the C-terminal Avitag (BirA biotin-protein ligase)); test: SPR; biotinylated NDST1 immobilised on a BiotinCAP sensor chip (Biacore T200), nanobody titrated from 10 µM, 25 °C, 20 mM MES pH 6.5, 100 mM NaCl, 0.05% Tween-20; steady-state responses fitted to a 1:1 model; settings: both partners purified
T1 construct: human N-deacetylase-N-sulfotransferase 1 (NDST1) with a C-terminal Avitag, made by PCR with tailed primers and subcloned into pOMNIBac; also called biotinylated NDST1; source: insect cells (baculovirus, pOMNIBac), purified; biotinylated with the BirA kit, then a final round of SEC; not shown: Avitag, C-terminal, kept

[2] = target: T1, biotinylated C-terminal Avitagged NDST1; test: BLI; biotinylated NDST1 immobilised on Octet SA biosensors, nanobodies in PBS-T, 25 °C, 1000 rpm; steady-state responses fitted to a 1:1 model; settings: both partners purified
[3] = target: T2, solubilized recombinant NDST1 (residues 79-882), bifunctional heparan sulfate … (human, UniProt P52848); test: differential scanning fluorimetry; NDST1 (1 µg) in 20 µL PBS pH 7.4 with 20X Sypro Orange, with 10.8 µM nAb; 25 to 95 °C; settings: both partners purified
T2 construct: human N-deacetylase-N-sulfotransferase 1 (NDST1), residues 79-882, truncated at P78/S79 to remove the N-terminal transmembrane helix and a linker region; secreted behind a honeybee melittin secretion peptide; 6xHis tag cleaved with TEV protease; also called NDST1(79-882); solubilized NDST1; not shown: 6xHis, N-terminal, cleaved

[4] = target: T2, solubilized recombinant NDST1 (residues …); test: cell-based or functional assay
[5] = target: T2, solubilized recombinant NDST1 (residues …); test: cell-based or functional assay; remark: listed apart in the source

T2 sequence (P52848 79-882): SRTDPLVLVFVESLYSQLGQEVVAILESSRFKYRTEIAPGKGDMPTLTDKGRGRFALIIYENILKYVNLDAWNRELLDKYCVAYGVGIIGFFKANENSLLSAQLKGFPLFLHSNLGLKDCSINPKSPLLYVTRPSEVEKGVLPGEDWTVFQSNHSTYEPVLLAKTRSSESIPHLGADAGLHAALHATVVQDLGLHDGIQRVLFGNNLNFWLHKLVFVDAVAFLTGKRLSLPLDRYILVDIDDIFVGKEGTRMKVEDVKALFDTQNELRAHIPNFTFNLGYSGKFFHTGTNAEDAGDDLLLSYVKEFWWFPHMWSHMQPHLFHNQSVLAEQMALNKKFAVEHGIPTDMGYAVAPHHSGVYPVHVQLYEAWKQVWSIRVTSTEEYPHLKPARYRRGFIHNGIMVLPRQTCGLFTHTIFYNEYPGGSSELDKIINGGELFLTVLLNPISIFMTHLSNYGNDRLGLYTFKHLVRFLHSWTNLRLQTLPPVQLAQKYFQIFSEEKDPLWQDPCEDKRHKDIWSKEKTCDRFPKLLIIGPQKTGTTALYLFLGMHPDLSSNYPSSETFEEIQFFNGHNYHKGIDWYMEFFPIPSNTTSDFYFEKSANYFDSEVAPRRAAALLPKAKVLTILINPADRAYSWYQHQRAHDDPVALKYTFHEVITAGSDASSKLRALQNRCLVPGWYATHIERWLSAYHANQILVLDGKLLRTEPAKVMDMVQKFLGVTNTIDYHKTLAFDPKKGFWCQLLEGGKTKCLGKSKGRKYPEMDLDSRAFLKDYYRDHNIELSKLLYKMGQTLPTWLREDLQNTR
T1 sequence (P52848 79-882): as above

Binder	Kd [1] [nM]	Kd [2] [nM]	stabilization of NDST1 thermal denaturation with 10.8 µM nAb [3] [°C]	fold decrease in kcat/KM of NDST1 with respect to K5 with 30 µM nAb7, against NDST1 alone (0.06 vs 0.18 min^-1 mg^-1 mL) [4] [fold]	KI of inhibition of NDST1 activity (fluorometric coupled enzyme assay with Sult1a1-K65E-R68G, K5 substrate; Morrison equation) [5] [nM]	fold enhancement of NDST1 activity in the coupled enzyme assay [4] [fold]	kcat of NDST1 with respect to K5 with 30 µM nAb13, against NDST1 alone (0.26 min^-1 vs 0.14 min^-1) [4] [%]	EC50 of enhancement of NDST1 activity (fluorometric coupled enzyme assay with Sult1a1-K65E-R68G, K5 substrate) [5] [nM]
B1	840	470						
B2	220	120	~4.4	~3	240			
B3	570		~2.6		3300			
B4	2370	2670						
B5	530	240	~1.9			~2	~86	450
